Consider 5 substances from publication doi:10.1101/2023.04.27.538407.

Assay [1] deals with MYPT1-C2 peptide 35, S695 replaced by alanine (human). The assay is described as follows: peptide or protein array.
For assay [2], the target named is MYPT1-C2 peptide 35, R693 replaced by alanine (human). The assay is described as follows: peptide or protein array.
In assay [3] the target is MYPT1-C2 peptide 35, R694 replaced by alanine (human). The assay is described as follows: peptide or protein array.
The target of assay [4] is MYPT1 (endogenous, human platelets) (human (endogenous in platelets)). The assay is described as follows: proximity ligation.
Chain of MYPT1 (endogenous, human platelets) (human (endogenous in platelets)) (O14974 whole entry): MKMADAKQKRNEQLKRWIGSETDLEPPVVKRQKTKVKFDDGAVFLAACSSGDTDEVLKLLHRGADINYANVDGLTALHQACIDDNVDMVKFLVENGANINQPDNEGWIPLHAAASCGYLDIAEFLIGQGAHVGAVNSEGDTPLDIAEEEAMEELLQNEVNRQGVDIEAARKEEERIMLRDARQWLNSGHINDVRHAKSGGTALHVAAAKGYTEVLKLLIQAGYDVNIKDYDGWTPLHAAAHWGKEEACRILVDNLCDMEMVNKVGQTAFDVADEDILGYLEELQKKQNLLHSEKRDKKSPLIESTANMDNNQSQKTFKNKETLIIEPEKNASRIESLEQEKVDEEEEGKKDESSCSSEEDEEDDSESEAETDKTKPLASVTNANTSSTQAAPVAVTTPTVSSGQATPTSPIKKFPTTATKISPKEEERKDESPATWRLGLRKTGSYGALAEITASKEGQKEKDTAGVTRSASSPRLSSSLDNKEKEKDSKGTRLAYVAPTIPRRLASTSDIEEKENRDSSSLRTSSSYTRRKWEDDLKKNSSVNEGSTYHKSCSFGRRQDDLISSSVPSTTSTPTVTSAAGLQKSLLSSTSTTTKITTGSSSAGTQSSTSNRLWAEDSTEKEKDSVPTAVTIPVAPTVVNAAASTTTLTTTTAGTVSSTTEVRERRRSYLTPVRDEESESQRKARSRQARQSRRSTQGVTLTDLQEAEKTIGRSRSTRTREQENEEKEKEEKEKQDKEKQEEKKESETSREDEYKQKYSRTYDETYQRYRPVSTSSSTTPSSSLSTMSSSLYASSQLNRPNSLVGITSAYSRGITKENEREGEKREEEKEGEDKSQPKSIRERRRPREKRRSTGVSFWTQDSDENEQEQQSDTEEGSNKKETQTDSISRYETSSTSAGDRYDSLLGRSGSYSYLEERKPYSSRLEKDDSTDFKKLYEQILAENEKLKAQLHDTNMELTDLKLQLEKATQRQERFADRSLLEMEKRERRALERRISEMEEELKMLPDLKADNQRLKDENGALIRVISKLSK

As for “His-tagged PKA-RIIβ (from UniProt P31323 1-418) (natural protein)”, the reduction of binding against the non-mutated peptide in assay [1], in assay [2] and in assay [3] was 50% in each case. For “His-tagged PKA-RIβ (from UniProt P31321 1-381) (natural protein)”, the reduction of binding against the non-mutated peptide in assay [1], in assay [2] and in assay [3] was 50% in each case. “PKA-RI (endogenous, human platelets) (from UniProt P10644 1-381) (natural protein)” showed a PLA dots per platelet (dots per platelet) in assay [4] of 1.48. In turn, “PKA-RIIα (endogenous, human platelets) (from UniProt P13861 1-404) (natural protein)” returned a PLA dots per platelet (dots per platelet) in assay [4] of 1.01. The same measure, in the same setting: as for “PKA-RIIβ (endogenous, human platelets) (from UniProt P31323 1-418) (natural protein)”, the figure is 0.97.
